Source: patent publication WO2018134389A1

Biological target: DC-SIGN ECD immobilised on a streptactin-functionalised SPR surface (human) (UniProt Q9NNX6)
Sequence (Q9NNX6 59-404): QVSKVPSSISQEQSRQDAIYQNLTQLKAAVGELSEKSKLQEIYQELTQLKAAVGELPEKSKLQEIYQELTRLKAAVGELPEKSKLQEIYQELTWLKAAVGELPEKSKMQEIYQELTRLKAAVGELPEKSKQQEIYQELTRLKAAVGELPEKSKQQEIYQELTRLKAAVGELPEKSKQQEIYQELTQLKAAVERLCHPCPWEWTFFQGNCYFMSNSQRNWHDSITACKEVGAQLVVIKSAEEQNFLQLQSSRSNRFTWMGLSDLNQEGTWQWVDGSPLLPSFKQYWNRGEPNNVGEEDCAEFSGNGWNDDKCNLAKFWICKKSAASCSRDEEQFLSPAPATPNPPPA

HCMV gB treated with a(2 to 3,6)-neuraminidase (sialic acids removed) (from UniProt P13201 25-907) (ligand)
Kd: 0.025 nM
